Experimental data taken from IntAct's records for PubMed 16888623.

B1: Mucin-1 (Homo sapiens), P15941-12 (parent)
chain: MTPGTQSPFFLLLLLTVLTATTAPKPATVVTGSGHASSTPGGEKETSATQRSSVPSSTEKNAFNSSLEDPSTDYYQELQRDISEMAVCQCRRKNYGQLDIFPARDTYHPMSEYPTYHTHGRYVPPSSTDRSPYEKVSAGNGGSSLSYTNPAVAATSANL

Variants of: B1
Conditions: with abl1_human ABL1, P00519
Chain of abl1_human ABL1, P00519 (P00519 whole entry): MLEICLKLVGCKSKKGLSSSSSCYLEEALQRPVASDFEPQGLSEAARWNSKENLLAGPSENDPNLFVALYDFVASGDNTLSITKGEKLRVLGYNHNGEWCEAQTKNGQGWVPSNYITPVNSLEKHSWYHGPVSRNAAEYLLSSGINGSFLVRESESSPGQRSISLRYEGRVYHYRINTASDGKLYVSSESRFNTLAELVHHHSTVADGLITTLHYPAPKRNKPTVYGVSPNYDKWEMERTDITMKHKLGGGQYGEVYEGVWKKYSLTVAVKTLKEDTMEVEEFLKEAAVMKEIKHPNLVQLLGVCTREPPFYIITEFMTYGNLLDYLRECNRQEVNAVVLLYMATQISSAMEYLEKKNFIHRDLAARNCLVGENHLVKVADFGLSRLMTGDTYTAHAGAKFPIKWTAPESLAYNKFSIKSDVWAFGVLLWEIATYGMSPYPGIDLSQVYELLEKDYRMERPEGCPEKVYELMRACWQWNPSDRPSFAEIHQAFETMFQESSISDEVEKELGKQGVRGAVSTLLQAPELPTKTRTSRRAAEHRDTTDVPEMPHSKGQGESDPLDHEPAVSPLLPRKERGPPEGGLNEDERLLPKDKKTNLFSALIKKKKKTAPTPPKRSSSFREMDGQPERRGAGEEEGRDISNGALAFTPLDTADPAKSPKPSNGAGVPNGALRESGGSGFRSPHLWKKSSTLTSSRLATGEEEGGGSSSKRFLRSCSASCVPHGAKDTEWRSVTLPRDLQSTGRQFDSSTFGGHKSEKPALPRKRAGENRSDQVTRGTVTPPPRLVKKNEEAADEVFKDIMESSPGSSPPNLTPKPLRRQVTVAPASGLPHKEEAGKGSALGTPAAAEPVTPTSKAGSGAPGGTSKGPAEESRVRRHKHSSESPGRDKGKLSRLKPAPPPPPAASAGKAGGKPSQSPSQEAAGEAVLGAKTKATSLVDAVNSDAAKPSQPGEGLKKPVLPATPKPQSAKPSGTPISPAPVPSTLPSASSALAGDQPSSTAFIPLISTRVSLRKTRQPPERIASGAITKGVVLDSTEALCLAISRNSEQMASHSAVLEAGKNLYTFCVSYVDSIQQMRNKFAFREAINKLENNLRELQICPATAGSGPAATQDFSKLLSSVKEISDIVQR

Variant | effect of a mutation on the interaction
Y147F | disrupting interaction
